Holding throughout (format): cell-based
For test [1], the system named is HCC827 lung adenocarcinoma cells. As to the kind of experiment: MTT viability and bright field microscopy of HCC827 cells with CER T cells and Osimeritinib. The conditions noted are these: Osimeritinib 1 nM, 48 hours, CD4+ T cells. The text has this:
CD4+ T cells were transduced with lentiviral vectors encoding various CERs (CER21, CER108, CER104, CER129, CER27, CER120, CER122, CER123, CER124, or CER126). Mock transduced (vector only) CD4+ T cells were used as control. CER21 comprises a Tim4 binding domain, Tim4 transmembrane domain, and an engulfment signaling domain comprising a primary engulfment signaling domain comprising a TLR8 signaling domain. CER21 has a polypeptide sequence as set forth in SEQ ID NO:88. CER108 has a polypeptide sequence as set forth in SEQ ID NO:137 and comprises a Tim4 binding domain, Tim4 transmembrane domain, and an engulfment signaling domain comprising a primary engulfment signaling domain comprising a DAP12 signaling domain and a secondary engulfment signaling domain comprising a TLR8 signaling domain. CER104 has a polypeptide sequence as set forth in SEQ ID NO:133 and comprises a Tim4 binding domain, Tim4 transmembrane domain, and an engulfment signaling domain comprising a primary engulfment signaling domain comprising a TLR8 signaling domain and a secondary engulfment signaling domain comprising a DAP12 signaling domain. CER129 has a polypeptide sequence as set forth in SEQ ID NO:177 and comprises a Tim4 binding domain, Tim4 transmembrane domain, and an engulfment signaling domain comprising a primary engulfment signaling domain comprising a TLR8 signaling domain and a secondary engulfment signaling domain comprising a TRAF2 signaling domain. CER27 comprises a Tim4 binding domain, Tim4 transmembrane domain, and an engulfment signaling domain comprising a primary engulfment signaling domain comprising a TLR2 signaling domain. CER27 has a polypeptide sequence as set forth in SEQ ID NO:93. […] T cells were washed away, and the number of viable HCC827 cells was quantified using a calorimetric MTT assay. […]

Test [2] relates to A549 cells introduced with an ELM4-ALK translocation. Put plainly: Interferon Gamma secretion, A549 ALK+ co-culture. To be noted: Crizotinib (3700 nM) or Alectinib (3700 nM), 18 hours, E:T 2:1 and 5:1. The protocol:
After 18 hours of co-culture, bulk supernatants were evaluated for Interferon Gamma secretion (FIGS. 66A-B). Assays were performed using purified, tEGFR^+ (transduction marker), CER-expressing T cells 7 days after activation using CD3 & CD28 microbeads at effector: target ratios of (2:1 & 5:1). Control “Mock” T cells were transduced with vector alone.

Test [3] deals with HCC159 lung adenocarcinoma cells. As to the kind of experiment: LDH-based cytotoxicity, HCC159 cells. The conditions noted are these: Osimeritinib 0, 1, 5 nM; E:T 2:1 or 5:1; 18 hours. On the procedure: HCC159 lung adenocarcinoma cells were co-cultured with CER123- or CER126-expressing CD4+ T cells with increasing concentrations of Osimeritnib (0, 1 nM, 5 nM). After 18 hours of co-culture, bulk supernatants were evaluated using a LDH-based cytotoxicity assay. T cells assays were performed using purified, EGFR^+ (transduction marker), CER modified T cells 7 days after activation using CD3 & CD28 microbeads at effector:target cell ratios of 2:1 or 5:1. Control “Mock” T cells were transduced with vector alone. […] Bulk supernatants were also analyzed after 18 hours of co-culture for Interferon Gamma (IFNγ) secretion (FIG. 50). Control “Mock” T cells were transduced with vector alone.

For another test, the system named is ALK+A549 cells. As to the kind of experiment: LDH cytotoxicity assay, A549 ALK+ cells, 18 hours co-culture. On the procedure:
An ELM4-ALK translocation was introduced into A549 cells. […] Assays were performed with purified tEGFR^+ (transduction marker), CER-expressing T cells 7 days after activation using CD3 & CD28 microbeads at effector: target cell ratios of 2:1 or 5:1. Mock T cells were transduced with vector alone and used as control. After 18 hours of co-culture, bulk supernatants were evaluated using a LDH cytoxicity assay indicating cell killing (FIGS. 65A-B).

B1: CER122: Tim4 binding and transmembrane domains, TLR2 primary and DAP12 secondary signaling domains; SEQ ID NO:149 (protein)
chain: MSKGLLLLWLVTELWWLYLTPAASEDTIIGFLGQPVTLPCHYLSWSQSRNSMCWGKGSCPNSKCNAELLRTDGTRIISRKSTKYTLLGKVQFGEVSLTISNTNRGDSGVYCCRIEVPGWFNDVKKNVRLELRRATTTKKPTTTTRPTTTPYVTTTTPELLPTTVMTTSVLPTTTPPQTLATTAFSTAVTTCPSTTPGSFSQETTKGSAFTTESETLPASNHSQRSMMTISTDIAVLRPTGSNPGILPSTSQLTTQKTTLTTSESLQKTTKSHQINSRQTILIIACCVGFVLMVLLFLAFLHRFHGLWYMKMMWAWLQAKRKPRKAPSRNICYDAFVSYSERDAYWVENLMVQELENFNPPFKLCLHKRDFIPGKWIIDNIIDSIEKSHKTVFVLSENFVKSEWCKYELDFSHFRLFDENNDAAILILLEPIEKKAIPQRFCKLRKIMNTKTYLEWPMDEAQREGFWVNLRAAIKSYFLGRLVPRGRGAAEAATRKQRITETESPYQELQGQRSDVYSDLNTQRPYYK
modifications: CER122 protein
Turning to B1, the “bright field microscopy of HCC827 co-culture” value (from here on “bright field microscopy”) in test [1] is recorded as “cluster of dead HCC827 EGFR^+ cells surrounded by phagocytic CER122^+ T cells”.

B2: CER21: Tim4 binding and transmembrane domains, TLR8 signaling domain; SEQ ID NO:88 (protein)
chain: MSKGLLLLWLVTELWWLYLTPAASEDTIIGFLGQPVTLPCHYLSWSQSRNSMCWGKGSCPNSKCNAELLRTDGTRIISRKSTKYTLLGKVQFGEVSLTISNTNRGDSGVYCCRIEVPGWFNDVKKNVRLELRRATTTKKPTTTTRPTTTPYVTTTTPELLPTTVMTTSVLPTTTPPQTLATTAFSTAVTTCPSTTPGSFSQETTKGSAFTTESETLPASNHSQRSMMTISTDIAVLRPTGSNPGILPSTSQLTTQKTTLTTSESLQKTTKSHQINSRQTILIIACCVGFVLMVLLFLAFLHHLFYWDVWFIYNVCLAKVKGYRSLSTSQTFYDAYISYDTKDASVTDWVINELRYHLEESRDKNVLLCLEERDWDPGLAIIDNLMQSINQSKKTVFVLTKKYAKSWNFKTAFYLALQRLMDENMDVIIFILLEPVLQHSQYLRLRQRICKSSILQWPDNPKAEGLFWQTLRNVVLTENDSRYNNMYVDSIKQY
modifications: CER21 chimeric engulfment receptor
As for B2, in test [1], the “bright field microscopy” value was “cluster of dead HCC827 EGFR^+ cells surrounded by phagocytic CER21^+ T cells”.

B3: CER104: Tim4 binding and transmembrane domains, TLR8 primary and DAP12 secondary signaling domains; SEQ ID NO:133 (protein)
chain: MSKGLLLLWLVTELWWLYLTPAASEDTIIGFLGQPVTLPCHYLSWSQSRNSMCWGKGSCPNSKCNAELLRTDGTRIISRKSTKYTLLGKVQFGEVSLTISNTNRGDSGVYCCRIEVPGWFNDVKKNVRLELRRATTTKKPTTTTRPTTTPYVTTTTPELLPTTVMTTSVLPTTTPPQTLATTAFSTAVTTCPSTTPGSFSQETTKGSAFTTESETLPASNHSQRSMMTISTDIAVLRPTGSNPGILPSTSQLTTQKTTLTTSESLQKTTKSHQINSRQTILIIACCVGFVLMVLLFLAFLHHLFYWDVWFIYNVCLAKVKGYRSLSTSQTFYDAYISYDTKDASVTDWVINELRYHLEESRDKNVLLCLEERDWDPGLAIIDNLMQSINQSKKTVFVLTKKYAKSWNFKTAFYLALQRLMDENMDVIIFILLEPVLQHSQYLRLRQRICKSSILQWPDNPKAEGLFWQTLRNVVLTENDSRYNNMYVDSIKQYYFLGRLVPRGRGAAEAATRKQRITETESPYQELQGQRSDVYSDLNTQRPYYK
modifications: CER104 protein
As for B3, the “bright field microscopy” value in test [1] is “cluster of dead HCC827 EGFR^+ cells surrounded by phagocytic CER104^+ T cells”.

B4: CER126: Tim4 binding and transmembrane domains, TLR2 primary and TRAF2 secondary signaling domains; SEQ ID NO:174 (protein)
chain: MSKGLLLLWLVTELWWLYLTPAASEDTIIGFLGQPVTLPCHYLSWSQSRNSMCWGKGSCPNSKCNAELLRTDGTRIISRKSTKYTLLGKVQFGEVSLTISNTNRGDSGVYCCRIEVPGWFNDVKKNVRLELRRATTTKKPTTTTRPTTTPYVTTTTPELLPTTVMTTSVLPTTTPPQTLATTAFSTAVTTCPSTTPGSFSQETTKGSAFTTESETLPASNHSQRSMMTISTDIAVLRPTGSNPGILPSTSQLTTQKTTLTTSESLQKTTKSHQINSRQTILIIACCVGFVLMVLLFLAFLHRFHGLWYMKMMWAWLQAKRKPRKAPSRNICYDAFVSYSERDAYWVENLMVQELENFNPPFKLCLHKRDFIPGKWIIDNIIDSIEKSHKTVFVLSENFVKSEWCKYELDFSHFRLFDENNDAAILILLEPIEKKAIPQRFCKLRKIMNTKTYLEWPMDEAQREGFWVNLRAAIKSMAAASVTPPGSLELLQPGFSKTLLGTKLEAKYLCSACRNVLRRPFQAQCGHRYCSFCLASILSSGPQNCAACVHEGIYEEGISILESSSAFPDNAARREVESLPAVCPSDGCTWKGTLKEYESCHEGRCPLMLTECPACKGLVRLGEKERHLEHECPERSLSCRHCRAPCCGADVKAHHEVCPKFPLTCDGCGKKKIPREKFQDHVKTCGKCRVPCRFHAIGCLETVEGEKQQEHEVQWLREHLAMLLSSVLEAKPLLGDQSHAGSELLQRCESLEKKTATFENIVCVLNREVERVAMTAEAC
modifications: CER126 protein
Turning to B4, in test [2], the “Interferon Gamma secretion” value is reported as “dose-dependent inducible cytokine secretion”. For the same molecule, the “cell killing of HCC159 cells (LDH)” value in test [3] is listed as “inducible cell killing responses”. In addition, the “micrograph images of A549 co-culture” value with ALK+A549 cells (Crizotinib 3700 nM) was “near complete loss of Crizotinib-treated A549 cells”. Also, the “cell killing of A549 ALK+ cells (LDH)” value in the test on ALK+A549 cells (Crizotinib or Alectinib 0, 2500, 3700 nM, E:T 2:1 or 5:1, 18 hours) was “dose-dependent inducible cytokine secretion and cell killing responses”.

The record behind these values is US11708423B2, “Chimeric engulfment receptor molecules and methods of use” (CERO THERAPEUTICS, INC., priority 2017, dated 2023).
